Source: patent US20090136503A1 (BEIJING COTIMES BIOTECH, published 2009)

How the values were obtained:
[1] = target: Human IgG1 (control antigen) (human); test: ELISA; human IgG1 captured on goat anti-human IgG, antibody at 2 µg/ml
[2] = target: BSA (bovine serum albumin), negative control (bovine, UniProt P02769 25-607); test: ELISA: plate coated with BSA (control) at 1 µg/ml, HRP goat anti-mouse IgG, TMB
[3] = target: T1, TRAIL-R2 on the surface of human tumor cells (human, UniProt O14763 56-440); test: flow cytometry on Jurkat cells (said to express TRAIL-R2 only, not TRAIL-R1), PE goat anti-mouse IgG1
T1 construct: whole, on cells; also called DR5; CD262

[4] = target: T2, TRAIL-R3-Fc fusion protein (human, UniProt O14798 26-221, limits assumed); test: ELISA: plate coated with TRAIL-R3-Fc at 1 µg/ml, HRP goat anti-mouse IgG, TMB
T2 construct: The origin of the protein is not described; also called TRAIL-R3-Fc fusion antigen; not shown: human IgG1 Fc
T2 sequence (looked up): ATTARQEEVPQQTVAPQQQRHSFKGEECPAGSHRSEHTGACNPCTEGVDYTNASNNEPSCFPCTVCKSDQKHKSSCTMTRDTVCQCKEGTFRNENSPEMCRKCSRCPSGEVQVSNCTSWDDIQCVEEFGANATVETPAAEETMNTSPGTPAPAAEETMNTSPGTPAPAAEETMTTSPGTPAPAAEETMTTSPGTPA

[5] = target: T3, TRAIL-R4-Fc fusion protein (human, UniProt Q9UBN6 56-211); test: ELISA: plate coated with TRAIL-R4-Fc at 1 µg/ml, HRP goat anti-mouse IgG, TMB
T3 construct: The origin of the protein is not described; also called TRAIL-R4-Fc fusion antigen; not shown: human IgG1 Fc
T3 sequence (looked up): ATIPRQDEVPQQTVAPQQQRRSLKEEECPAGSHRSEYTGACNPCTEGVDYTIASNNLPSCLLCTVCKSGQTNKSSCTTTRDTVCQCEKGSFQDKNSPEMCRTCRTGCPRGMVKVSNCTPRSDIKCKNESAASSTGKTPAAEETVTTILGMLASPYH

[6] = target: TRAIL-R1 on the surface of human tumor cells (human, UniProt O00220 24-468); test: cell-based or functional assay

Sequence of BSA (bovine serum albumin), negative control (P02769 25-607 limits assumed): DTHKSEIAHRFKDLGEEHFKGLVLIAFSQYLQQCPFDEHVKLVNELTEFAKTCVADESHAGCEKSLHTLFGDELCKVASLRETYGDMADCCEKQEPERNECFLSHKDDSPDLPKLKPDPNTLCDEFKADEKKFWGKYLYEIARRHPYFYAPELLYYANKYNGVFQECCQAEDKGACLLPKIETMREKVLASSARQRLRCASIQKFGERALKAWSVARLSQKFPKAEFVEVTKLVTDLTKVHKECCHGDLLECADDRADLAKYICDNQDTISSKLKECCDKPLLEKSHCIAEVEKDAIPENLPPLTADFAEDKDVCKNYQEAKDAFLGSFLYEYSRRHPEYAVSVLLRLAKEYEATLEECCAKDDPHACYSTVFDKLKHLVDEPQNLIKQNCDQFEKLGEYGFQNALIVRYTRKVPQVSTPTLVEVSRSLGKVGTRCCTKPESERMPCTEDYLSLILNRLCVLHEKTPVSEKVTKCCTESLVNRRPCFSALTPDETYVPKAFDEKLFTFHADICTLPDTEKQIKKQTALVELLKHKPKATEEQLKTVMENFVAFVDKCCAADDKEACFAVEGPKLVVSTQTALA

B1: CTB007 murine monoclonal antibody against TRAIL-R1 (hybridoma CGMCC 1733) (antibody, V domains shown)
VH: EVQLQQSGAELVKPGASVKLSCTASGFNIKDTYMHWVKQRPEQGLEWIGRIDPANGNTKYDPKFQGKATITADTSSNTAYLQLSSLTSEDTAVYYCAYYYVSNAWFTYWGQGTLVTVSA
VL: DIQMTQSPASLSVSVGETVTITCRASENIYSNLEWYQQKQGKSPQLLVYAATNLADGVPSRFSGSGSGTQYSLKINSLQSEDFGSYYCQHFWGTWTFGGGTKLEIK
notes: Murine monoclonal antibody; also called Anti-TRAIL-R1 (CTB007); CTB007-HRP
OD 450 nm/650 nm [1]: 0.026 OD | binding result [2]: no binding (tested: 1000 ng/ml) | binding result [3]: no binding | binding result [4]: no binding (tested: 1000 ng/ml) | binding result [5]: no binding (tested: 1000 ng/ml) | IC50 (ng/ml), killing of Carov 3 cells, ATPLite cell viability [6]: 29.5 ng/mL | IC50 (ng/ml), killing of Colo205 cells, ATPLite cell viability [6]: 6.2 ng/mL | IC50 (ng/ml), killing of Du145 cells, ATPLite cell viability [6]: 31.2 ng/mL | IC50 (ng/ml), killing of H-2122 cells, ATPLite cell viability [6]: 25.4 ng/mL | IC50 (ng/ml), killing of MDA231 cells, ATPLite cell viability [6]: 8.2 ng/mL | IC50 (ng/ml), killing of MIAcap cells, ATPLite cell viability [6]: 9.5 ng/mL
